Results on one substance are retold here after article PMC2132842.

Some targets named below: GAL4/Imp βΔ1/261 (human) (UniProt Q14974); GAL4/LEF-1 (297–399) (UniProt Q9UJU2); GAL4/CAS (human) (UniProt P55060).
Test in all cases: two-hybrid

Sequence of GAL4/Imp βΔ1/261 (human) (Q14974 262-876, stated change not applied): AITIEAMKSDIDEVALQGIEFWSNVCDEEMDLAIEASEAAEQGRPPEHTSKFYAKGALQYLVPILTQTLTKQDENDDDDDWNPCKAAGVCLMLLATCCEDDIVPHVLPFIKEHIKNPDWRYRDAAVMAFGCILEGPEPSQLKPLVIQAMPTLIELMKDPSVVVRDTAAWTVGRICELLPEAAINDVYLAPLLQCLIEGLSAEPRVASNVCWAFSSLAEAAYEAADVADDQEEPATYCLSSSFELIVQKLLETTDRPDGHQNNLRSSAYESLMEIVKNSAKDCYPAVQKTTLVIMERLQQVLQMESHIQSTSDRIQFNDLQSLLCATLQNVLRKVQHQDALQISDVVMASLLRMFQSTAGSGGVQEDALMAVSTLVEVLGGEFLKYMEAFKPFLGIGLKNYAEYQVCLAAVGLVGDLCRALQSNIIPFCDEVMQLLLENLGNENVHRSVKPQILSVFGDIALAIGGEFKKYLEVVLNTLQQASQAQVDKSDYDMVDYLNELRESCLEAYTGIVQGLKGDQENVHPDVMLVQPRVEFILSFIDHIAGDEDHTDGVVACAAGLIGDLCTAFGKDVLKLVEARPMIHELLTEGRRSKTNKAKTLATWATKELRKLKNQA
Sequence of GAL4/CAS (human) (P55060 whole entry, the tested form may be a part): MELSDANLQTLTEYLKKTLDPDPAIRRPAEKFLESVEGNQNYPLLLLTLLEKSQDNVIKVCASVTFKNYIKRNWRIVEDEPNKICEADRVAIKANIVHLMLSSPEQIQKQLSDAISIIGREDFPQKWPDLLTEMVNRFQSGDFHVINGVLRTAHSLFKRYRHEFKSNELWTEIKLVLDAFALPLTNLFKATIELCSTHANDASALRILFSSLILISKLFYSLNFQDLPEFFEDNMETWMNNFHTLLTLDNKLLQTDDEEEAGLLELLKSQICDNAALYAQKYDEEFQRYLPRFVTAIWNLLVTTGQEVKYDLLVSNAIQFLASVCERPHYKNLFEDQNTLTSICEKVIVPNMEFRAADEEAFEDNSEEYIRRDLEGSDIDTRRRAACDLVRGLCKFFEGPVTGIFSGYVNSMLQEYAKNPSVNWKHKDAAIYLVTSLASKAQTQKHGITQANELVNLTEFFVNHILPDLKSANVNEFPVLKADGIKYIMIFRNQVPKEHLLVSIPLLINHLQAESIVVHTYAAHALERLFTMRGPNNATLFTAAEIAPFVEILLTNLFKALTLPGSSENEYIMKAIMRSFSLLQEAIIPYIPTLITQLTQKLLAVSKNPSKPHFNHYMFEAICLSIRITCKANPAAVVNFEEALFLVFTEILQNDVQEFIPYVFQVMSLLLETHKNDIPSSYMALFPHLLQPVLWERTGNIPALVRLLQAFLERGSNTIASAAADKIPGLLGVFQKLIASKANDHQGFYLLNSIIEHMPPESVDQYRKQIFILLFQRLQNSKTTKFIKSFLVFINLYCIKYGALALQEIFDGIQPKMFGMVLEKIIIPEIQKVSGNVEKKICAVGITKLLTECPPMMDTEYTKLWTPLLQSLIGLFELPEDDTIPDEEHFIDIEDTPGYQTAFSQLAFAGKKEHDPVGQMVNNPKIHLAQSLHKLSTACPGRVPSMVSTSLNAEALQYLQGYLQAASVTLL
Sequence of GAL4/LEF-1 (297–399) (Q9UJU2 297-399): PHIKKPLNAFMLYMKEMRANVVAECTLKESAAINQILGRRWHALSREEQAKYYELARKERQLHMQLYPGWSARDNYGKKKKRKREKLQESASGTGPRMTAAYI

For “VP16/Imp α2 (from UniProt P52292 1-529) (natural protein)”, the β-gal activity with GAL4/Imp βΔ1/261 (human) was 1200 mOD/ml; in the test with GAL4/LEF-1 (297–399) it was 130 mOD/ml; with GAL4/CAS (human) it was 434 mOD/ml.
